Positions count from the first letter of the chain named.
T1: WRKY25 (Arabidopsis, UniProt O22921 1-393)
T1 sequence: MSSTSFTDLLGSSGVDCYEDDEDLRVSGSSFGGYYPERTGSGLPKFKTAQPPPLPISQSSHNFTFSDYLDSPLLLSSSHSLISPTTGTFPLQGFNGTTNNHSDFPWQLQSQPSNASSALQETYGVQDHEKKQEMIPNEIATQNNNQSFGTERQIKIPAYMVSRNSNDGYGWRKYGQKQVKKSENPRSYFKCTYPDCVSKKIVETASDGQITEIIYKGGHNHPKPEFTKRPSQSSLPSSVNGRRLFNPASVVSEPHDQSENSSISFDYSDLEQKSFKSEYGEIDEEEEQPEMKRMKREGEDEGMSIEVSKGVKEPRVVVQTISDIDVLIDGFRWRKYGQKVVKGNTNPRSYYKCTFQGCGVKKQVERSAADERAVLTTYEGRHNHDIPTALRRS

B1: Pchn5 (dsDNA)
DNA 1: GGAACTTGACCATCCGTTGACCGGGCTGCAGGAATTCG
DNA 2: CGAATTCCTGCAGCCCGGTCAACGGATGGTCAAGTTCC
B2: mPchn5 (dsDNA)
DNA 1: B1 DNA 1 with C10A, C21A
DNA 2: B1 DNA 2 with G18T, G29T

Target: T1, WRKY25
Assay: EMSA; poly(dIdC) 5 ug; 12 ul nuclear extraction buffer (25 mM HEPES/KOH pH 7.5, 40 mM KCl, 0.1 mM EDTA, 10% glycerol, 1 mM DTT, PMSF), 5 ug poly(dIdC), 1 ug protein, 2 ng labelled dsDNA; room temperature 30 min; 10% PAGE in 0.5x TBE at 4 C
Conditions: protein: recombinant, tags: His-tagged, pET32a (EcoRI/XhoI) vector fusion, (Klenow labelled, ~10^5 cpm/ng)

Row | Binder | binding result
1 | B1 | binds
2 | B2 | no binding
